Sequences and labels used below:
B1: wild-type GST-Nkd1 [human] / in vitro translated ^35[S]-labelled Dvl1 [modified: 35S-methionine label; 35S-methionine label] [human] (parent complex)
chain 1: MGKLHSKPAAVCKRRESPEGDSFAVSAAWARKGIEEWIGRQRCPGGVSGPRQLRLAGTIGRSTRELVGDVLRDTLSEEEEDDFRLEVALPPEKTDGLGSGDEKKMERVSEPCPGSKKQLKFEELQCDVSMEEDSRQEWTFTLYDFDNNGKVTREDITSLLHTIYEVVDSSVNHSPTSSKMLRVKLTVAPDGSQSKRSVLVNQADLQSARPRAETKPTEDLRSWEKKQRAPLRFQGDSRLEQSGCYHHCVDENIERRNHYLDLAGIENYTSQFGPGSPSVAQKSELPPRTSNPTRSRSHEPEAIHIPHRKPQGVDPASFHFLDTPIAKVSELQQRLRGTQDGSKHFVRSPKAQGKSVGVGHVARGARNKPPLGPAIPAVSPSAHLAASPALLPSLAPLGHKKHKHRAKESQQGCRGLQAPLASGGPVLGREHLRELPALVVYESQAGQPVQRHEHHHHHEHHHHYHHFYQT
chain 2: MAETKIIYHMDEEETPYLVKLPVAPERVTLADFKNVLSNRPVHAYKFFFKSMDQDFGVVKEEIFDDNAKLPCFNGRVVSWLVLAEGAHSDAGSQGTDSHTDLPPPLERTGGIGDSRPPSFHPNVASSRDGMDNETGTESMVSHRRERARRRNREEAARTNGHPRGDRRRDVGLPPDSASTALSSELESSSFVDSDEDGSTSRLSSSTEQSTSSRLIRKHKRRRRKQRLRQADRASSFSSITDSTMSLNIVTVTLNMERHHFLGISIVGQSNDRGDGGIYIGSIMKGGAVAADGRIEPGDMLLQVNDVNFENMSNDDAVRVLREIVSQTGPISLTVAKCWDPTPRSYFTVPRADPVRPIDPAAWLSHTAALTGALPRYGTSPCSSAVTRTSSSSLTSSVPGAPQLEEAPLTVKSDMSAVVRVMQLPDSGLEIRDRMWLKITIANAVIGADVVDWLYTHVEGFKERREARKYASSLLKHGFLRHTVNKITFSEQCYYVFGDLCSNLATLNLNSGSSGTSDQDTLAPLPHPAAPWPLGQGYPYQYPGPPPCFPPAYQDPGFSYGSGSTGSQQSEGSKSSGSTRSSRRAPGREKERRAAGAGGSGSESDHTAPSGVGSSWRERPAGQLSRGSSPRSQASATAPGLPPPHPTTKAYTVVGGPPGGPPVRELAAVPPELTGSRQSFQKAMGNPCEFFVDIM
B2: wild-type GST-Nkd1 [human] / in vitro translated ^35[S]-labelled Dvl3 [modified: 35S-methionine label; 35S-methionine label] [human] (parent complex)
chain 1: B1 chain 1
chain 2: MGETKIIYHLDGQETPYLVKLPLPAERVTLADFKGVLQRPSYKFFFKSMDDDFGVVKEEISDDNAKLPCFNGRVVSWLVSAEGSHPDPAPFCADNPSELPPPMERTGGIGDSRPPSFHPHAGGGSQENLDNDTETDSLVSAQRERPRRRDGPEHATRLNGTAKGERRREPGGYDSSSTLMSSELETTSFFDSDEDDSTSRFSSSTEQSSASRLMRRHKRRRRKQKVSRIERSSSFSSITDSTMSLNIITVTLNMEKYNFLGISIVGQSNERGDGGIYIGSIMKGGAVAADGRIEPGDMLLQVNEINFENMSNDDAVRVLREIVHKPGPITLTVAKCWDPSPRGCFTLPRSEPIRPIDPAAWVSHTAAMTGTFPAYGMSPSLSTITSTSSSITSSIPDTERLDDFHLSIHSDMAAIVKAMASPESGLEVRDRMWLKITIPNAFIGSDVVDWLYHNVEGFTDRREARKYASNLLKAGFIRHTVNKITFSEQCYYIFGDLCGNMANLSLHDHDGSSGASDQDTLAPLPHPGAAPWPMAFPYQYPPPPHPYNPHPGFPELGYSYGGGSASSQHSEGSRSSGSNRSGSDRRKEKDPKAGDSKSGGSGSESDHTTRSSLRGPRERAPSERSGPAASEHSHRSHHSLASSLRSHHTHPSYGPPGVPPLYGPPMLMMPPPPAAMGPPGAPPGRDLASVPPELTASRQSFRMAMGNPSEFFVDVM
B3: wild-type GST-Nkd1 [human] / in vitro translated ^35[S]-labelled Dvl2 [modified: 35S-methionine label; 35S-methionine label] [not stated (human or mouse cDNA cloned)] (parent complex)
chain 1: B1 chain 1
chain 2: MAGSSTGGGGVGETKVIYHLDEEETPYLVKIPVPAERITLGDFKSVLQRPAGAKYFFKSMDQDFGVVKEEISDDNARLPCFNGRVVSWLVSSDNPQPEMAPPVHEPRAELAPPAPPLPPLPPERTSGIGDSRPPSFHPNVSSSHENLEPETETESVVSLRRERPRRRDSSEHGAGGHRTGGPSRLERHLAGYESSSTLMTSELESTSLGDSDEEDTMSRFSSSTEQSSASRLLKRHRRRRKQRPPRLERTSSFSSVTDSTMSLNIITVTLNMEKYNFLGISIVGQSNERGDGGIYIGSIMKGGAVAADGRIEPGDMLLQVNDMNFENMSNDDAVRVLRDIVHKPGPIVLTVAKCWDPSPQAYFTLPRNEPIQPIDPAAWVSHSAALTGTFPAYPGSSSMSTITSGSSLPDGCEGRGLSVHTDMASVTKAMAAPESGLEVRDRMWLKITIPNAFLGSDVVDWLYHHVEGFPERREARKYASGLLKAGLIRHTVNKITFSEQCYYVFGDLSGGCESYLVNLSLNDNDGSSGASDQDTLAPLPGATPWPLLPTFSYQYPAPHPYSPQPPPYHELSSYTYGGGSASSQHSEGSRSSGSTRSDGGAGRTGRPEERAPESKSGSGSESEPSSRGGSLRRGGEASGTSDGGPPPSRGSTGGAPNLRAHPGLHPYGPPPGMALPYNPMMVVMMPPPPPPVPPAVQPPGAPPVRDLGSVPPELTASRQSFHMAMGNPSEFFVDVM

One assay covers variants of B1. Put plainly: GST-pulldown; parent: 1; read off a plot.
Take chain 1 R288H: the ratio to parent was around 0.19.

In the next assay the parent is B1. Put plainly: yeast two-hybrid (quantitative ONPG assay); parent: 6.2; read off a plot.
On to chain 1 R288H, for which the response was around 2.4 ONPG units.

The variants in a further assay derive from B2. Put plainly: GST-pulldown; parent: 1; read off a plot.
Regarding chain 1 R288H, the ratio to parent was around 0.7.

The next assay covers variants of B2. Put plainly: yeast two-hybrid (quantitative ONPG assay); parent: 4; read off a plot.
Take chain 1 R288H: the response was around 3 ONPG units.

The variants in another assay derive from B3. Put plainly: GST-pulldown; parent: 1; read off a plot.
Consider chain 1 R288H, for which the ratio to parent was around 0.14.

The variants in a further assay derive from B3. Put plainly: yeast two-hybrid (quantitative ONPG assay); parent: 4.7; read off a plot.
Regarding chain 1 R288H, the response is around 2.5 ONPG units.

Source of the values: article PMC2776356 (2009).
